Experimental data published in US20250197482A1.

Tests used:
[1] = biological target: 426C-WITO soluble Env trimer (clade B), stabilized in the prefusion-closed conformation (HIV-1); experiment: ELISA, lectin-captured trimer, expression supernatant, single point, OD 450 nm, column 426c-WITO-degly3
[2] = biological target: JRFL soluble Env trimer (clade B), stabilized in the prefusion-closed conformation (HIV-1); experiment: ELISA, lectin-captured trimer, expression supernatant, single point, OD 450 nm
[3] = biological target: K169V variant of CAP256 soluble Env trimer (HIV-1); experiment: as above
[4] = biological target: CAP256 soluble Env trimer (clade C), stabilized in the prefusion-closed conformation (HIV-1); experiment: as above
[5] = biological target: HIV-1 Env of strain WITO.33 (Env-pseudotyped virus) (HIV-1)

In the case of VRC01 (antibody), the ELISA binding [1] is reported as 2.53, the ELISA binding [2] is reported as 2.29 and the ELISA binding [3] is reported as 2.65. It also gave an ELISA binding [4] of 2.31, a % neutralization, single point, Env-pseudotyped virus on TZM-bl (CAP256 wk34c80 (HIV-1)) of 100% and a % neutralization, single point, Env-pseudotyped virus on TZM-bl [5] of 0%.
